Substitutions are numbered along the chain they refer to. Numbers in names are those of the source.
B1: MJ0366 from Methanocaldococcus jannaschii, wild type (natural protein, UniProt Q57812 1-92, looked up)
chain: MPLVGFMKEKKRATFYLYKNIDGRKLRYLLHKLENVENVDIDTLRRAIEAEKKYKRSITLTEEEEVIIQRLGKSANLLLNCELVKLDEGERA
notes: MJ0366, Methanocaldococcus jannaschii, knotted protein of 92 residues; If it was, ENLYFQ would remain at the C-terminus; also called wild type protein
B2: MJ0366 construct F6C/K73C in the background of C81A (natural protein, Methanocaldococcus jannaschii, UniProt Q57812 1-92, looked up)
chain: B1 chain with F6C, K73C, C81A
notes: MJ0366, Methanocaldococcus jannaschii, 92 residues; double cysteine mutant with C81A; A TEV site ENLYFQG stands between the C-terminus and the His tag
B3: MJ0366 construct F6C/G89C in the background of C81A (natural protein, Methanocaldococcus jannaschii, UniProt Q57812 1-92, looked up)
chain: B1 chain with F6C, C81A, G89C
notes: MJ0366, Methanocaldococcus jannaschii, 92 residues; double cysteine mutant with C81A; A TEV site ENLYFQG stands between the C-terminus and the His tag; also called K6C/K89C (as printed once in the discussion)
B4: MJ0366 construct K19C/K73C in the background of C81A (natural protein, Methanocaldococcus jannaschii, UniProt Q57812 1-92, looked up)
chain: B1 chain with K19C, K73C, C81A
notes: MJ0366, Methanocaldococcus jannaschii, 92 residues; double cysteine mutant with C81A; A TEV site ENLYFQG stands between the C-terminus and the His tag; also called F19C/K73C (as printed once in the results)

Target: the molecule itself
Test: SEC; size exclusion chromatography on a Superdex S75 column (GE Healthcare); dimeric state in solution

Stoichiometry N, 2:
B1
B2
B3
B4

— publication PMC7292828, “Mechanical unfolding of a knotted protein unveils the kinetic and thermodynamic consequences of threading a polypeptide chain” (Scientific Reports, 2020)
